Here are results for two molecules from publication PMC3339974 (The Journal of Biological Chemistry, 2012).

Experiment [1] addresses soluble mouse CD3ϵ ectodomain homodimer (mouse) (UniProt P22646).
The target of experiment [2] is T1, soluble mouse CD3ϵ ectodomain homodimer (Mus musculus (strain )).
T1 chain: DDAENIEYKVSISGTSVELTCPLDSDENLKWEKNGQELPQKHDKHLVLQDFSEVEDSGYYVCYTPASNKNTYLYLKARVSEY
In words: crystal structure.

The term stoichiometry N denotes the number of molecules, sites or subunits per partner or assembly. Turning to “soluble mouse CD3ϵ ectodomain homodimer (from UniProt P22646 23-108) (domain or fragment)”, the stoichiometry N in experiment [1] amounted to 2.

B1: 2C11 Fab (Fab, V domains shown)
VH: EVQLVESGGGLVQPGKSLKLSCEASGFTFSGYGMHWVRQAPGRGLESVAYITSSSINIKYADAVKGRFTVSRDNAKNLLFLQMNILKSEDTAMYYCARFDWDKNYWGQGTMVTVSS
VL: DIQMTQSPSSLPASLGDRVTINCQASQDISNYLNWYQQKPGKAPKLLIYYTNKLADGVPSRFSGSGSGRDSSFTISSLESEDIGSYYCQQYYNYPWTFGPGTKLEIK
As for B1, in experiment [2], the binding result is “binds”.
